Assays:
[1] = target: Wildtype, full-length human Gαi1 (human, UniProt P63096 1-354); assay: SPR
Gαi1(R178M/A326S) = Gαi1(R178M/A326S) (human, UniProt P63096 1-354, R178M | A326S); assay: SPR
Chain of Gαi1(R178M/A326S) (P63096 whole entry R178M/A326S): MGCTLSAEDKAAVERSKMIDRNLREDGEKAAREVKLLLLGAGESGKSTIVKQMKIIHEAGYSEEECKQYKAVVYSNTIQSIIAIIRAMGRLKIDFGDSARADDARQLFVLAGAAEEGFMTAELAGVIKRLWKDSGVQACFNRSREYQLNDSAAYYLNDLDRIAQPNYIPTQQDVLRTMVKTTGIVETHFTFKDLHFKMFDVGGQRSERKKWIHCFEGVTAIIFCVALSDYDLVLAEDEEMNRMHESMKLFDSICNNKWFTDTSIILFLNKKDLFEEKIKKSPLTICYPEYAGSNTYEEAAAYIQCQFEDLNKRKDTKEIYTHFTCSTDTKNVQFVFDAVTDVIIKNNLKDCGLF

Chain of Wildtype, full-length human Gαi1 (P63096 whole entry): as the sequence (P63096 whole entry R178M/A326S) above, with M178R, S326A counted along it

Kd [1]: 124 nM
Kd (Gαi1(R178M/A326S)): 115 nM
B1: RGS16 (natural protein, human, UniProt O15492 1-202, looked up)
chain: MCRTLAAFPTTCLERAKEFKTRLGIFLHKSELGCDTGSTGKFEWGSKHSKENRNFSEDVLGWRESFDLLLSSKNGVAAFHAFLKTEFSEENLEFWLACEEFKKIRSATKLASRAHQIFEEFICSEAPKEVNIDHETHELTRMNLQTATATCFDAAQGKTRTLMEKDSYPRFLKSPAYRDLAAQASAASATLSSCSLDEPSHT

Source: PMC2795102 (Journal of biomolecular screening, 2009)
